Data taken from the nanobody polyreactivity screen of Harvey et al. (2022).

Assay: yeast display, Sf9 membrane polyspecificity reagent, FACS + sequencing; frameworks hold sequencing errors
How it was run: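 A nanobody's polyreactivity label depends on the gate it was sorted from. Yeast display cells were stained with 10% biotinylated, detergent-solubilized Sf9 membrane reagent for 1 hour at 4 °C, enriched on streptavidin microbeads and sorted by FACS. The low and high (top ~1%) gates were set on anti-HA fluorescence for expression and streptavidin fluorescence for reagent binding.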

| Sequence | polyreactivity (PSR sort gate) |
| --- | --- |
| QVQLVESGGGLVQAGGSLRLSCAASGIIFSYNAMGWYRQAPGKERELVAAITRTGSTNYADSVKGRFTISRDNAKNTVYLQMNSLKPEDTAVYYCAAGWGYGRYRHVGYRMDYWGQGTQVTVSS | high polyreactivity |
| QVQLVESGGGLVQAGGSLRLSCAASGIIFTDNALGWYRQAPGKERELVATISWSTDNTYYADSVKGRFTISRDNAKNTVYLQMNSLKPEDTAVYYCAAEEYYAYWYQYDYWGQGTQVTVSS | low polyreactivity |
| QVQLVESGGGLVQAGGSLRLSCAASGIIFTGYTMGWYRQAPGKERELVAAITWRGGSTYYADSVKGRFTISRDNAKNTVYLQMNSLKPEDTAVYYCAAEGWYSWDDDYWGQGTQVTVSS | low polyreactivity |
| QVQLVESGGGLVQAGGSLRLSCAASGIIFTKYAMGWYRQAPGKERELVAAITASGGSTYYADSVKGRFTISRDNAKNTVYLQMNSLKPEDTAVYYCAARSQSRYGYWGQGTQVTVSS | high polyreactivity |
| QVQLVESGGGLVQAGGSLRLSCAASGIIFTKYVMGWYRQAPGKERELVAAINTDGGSTRYADSVKGRFTISRDNAKNTVYLQKNSLKPEDTAVYYCAAVSSRRPGYEYYYWGQGTQVTVSS | high polyreactivity |
| QVQLVESGGGLVQAGGSLRLSCAASGIIFTSNTMGWYRQAPGKEREFVASINWNGSSTYADSVKGRFTISRDNAKNTVYLQMNSLKPEDTAVYYCAAEASPRLYRKYDYWGQGTQVTVSS | low polyreactivity |
| QVQLVESGGGLVQAGGSLRLSCAASGIIFTYNAMGWSRQAPGKERELVAAINSSGGSTNYADSVKGRFTISRDNAKNTVYLQMNSLKPEDTAVYYCAARDATYYGVWRYYGIDDYWGQGTQVTVSS | low polyreactivity |
| QVQLVESGGGLVQAGGSLRLSCAASGIIFTYYAMGWYRQAPGKERELVAAISVSGSSTYYADSVKGRFTISRDNAKNTVYLQMNSLKPEDTAVYYCAARYQWGTRGFGYWGQGTQVTVSS | high polyreactivity |
| QVQLVESGGGLVQAGGSLRLSCAASGIIFVENAMGWYRQAPGKERDLVASGDSTYADSVKGRFTIARDNAKNTVYLQMNSLKPEDNAVYYCNTDGYPRLYIYDYWGQGTQVTVSS | low polyreactivity |
| QVQLVESGGGLVQAGGSLRLSCAASGIIFVENAMGWYRQAPGKERELVAAISWDGGSTYYADSVKGRFTISRDNAKNTVYLQMNSLKPEDTAVYYCAADLTISYSQEYYYWGQGTQVTVSS | low polyreactivity |
| QVQLVESGGGLVQAGGSLRLSCAASGIIFVQYAMGWYRQAPGKERELVAGITRRGGSTYYADSVKGRFTISRDNAKNTVYLQMNSLKTEDTAVFYCAATRPGDVLYRNEYWGQGTQVTVSS | high polyreactivity |
| QVQLVESGGGLVQAGGSLRLSCAASGIIFVRYAMGWYRQAPGKERELVAAISSGGGSTYYADSVKGRFTISRDNAKNTVYLQMNSLKPEDTAVYYCATVVYPYSPRYDYWGQGTQVTVSS | high polyreactivity |
| QVQLVESGGGLVQAGGSLRLSCAASGIIFVRYAMGWYRQAPGKERELVAAITRNGGRTYYADSVKGRFTISRDNAKNTVYLQMNSLKPEDTAVYYCAAYPAYPGTLEMDYWGQGTQVTVSS | high polyreactivity |
| QVQLVESGGGLVQAGGSLRLSCAASGIIFVSNAMGWYRQAPGKERELVATINWSDDSTYYADSVKGRFTISRDNAKNTVYLQMNSLKPEDTAVYYCNKELYPVGDYEYWGLGTQVTVSS | low polyreactivity |
| QVQLVESGGGLVQAGGSLRLSCAASGIIFVYNTMGWYRQAPGKERELVAAISYSGGGTYYADSVKGRFTISRDNAKNTVYLQMNSLKPEDTAVYYCAAETYYAPYDYWGQGTQVTVSS | high polyreactivity |
| QVQLVESGGGLVQAGGSLRLSCAASGIIFWGNAMGWYRQAPGKERELVATITGRGGSTYYADSVKGRFTISRDNAKNTVYLQMNSLKPEDTAVYYCAASGGRPIFFYDVWGGIVRHDYWGQGTQVTVSS | low polyreactivity |
| QVQLVESGGGLVQAGGSLRLSCAASGIIFWHYAMGWYRQAPGKERELVAAISSRGGYTYYADSVKGRFTISRDNAKNTVSLQMNSLKPEDTAVYYCNAGYYTHRYRFLVQGDYWGQGTQVTVSS | high polyreactivity |
| QVQLVESGGGLVQAGGSLRLSCAASGIIFWRYAMGWYRQAPGKERELVAAISRRGGSTYYADSVKGRFTISRDNAKITVYLQMNSLKPEDTAVYYCAVLDWTLHYRSDYWGQGTQVTVSS | high polyreactivity |
| QVQLVESGGGLVQAGGSLRLSCAASGIIFYDYAMGWSRQAPGKERELVATITRGGGTKYADSVKGRFTISRDNAKNTVYLQMNSLKPEDTAVYYCAADSHGVYEGDYWGQGTQVTVSS | low polyreactivity |
| QVQLVESGGGLVQAGGSLRLSCAASGIIFYDYAMGWYRPAPGKERELVAAINYSGGSTYYADSVKGRFTISRDNAKNTVYLQMNSLKPEDTAVYYCAADNAVWEYDYWGQGTQVTVSS | low polyreactivity |
| QVQLVESGGGLVQAGGSLRLSCAASGIIFYDYAMVWYRQAPGKERELVAAISWGGGSTSYADSVKGRFTISRDNAKNTVYLQMNSLKPEDTAVYYCNKVSLSKRRDYYWGQGTQVTVSS | high polyreactivity |
| QVQLVESGGGLVQAGGSLRLSCAASGIIFYEFTMGWYRQAPGKERELVATISWSGGSTYYADSVKGRFTISRDNAKNTVYLQMNSLQPEDTAVYYCAADFADVQSISPDSAHEYDYWGQGTQVTVSS | low polyreactivity |

| Sequence | polyreactivity (PSR sort gate) |
| --- | --- |
| QVQLVESGGGLVQAGGSLRLSCAASGIIFYFYAMGWDSQAPGKERELVAAISGTGGRTYYADSVKGRFTISRDNAKNTVYLQMNSLKPEDTAVYYCAADRGGLRWFWQVLYDYWGQGTQVTESS | low polyreactivity |
| QVQLVESGGGLVQAGGSLRLSCAASGIIFYFYAMGWYRQAPGKERELVAAISRGGSTKYADSVKGRFTISRDNAKNTVYLQMNSLKPEDTAVYYCAATRRRPSEYYYWGQGTQVTVSS | high polyreactivity |
| QVQLVESGGGLVQAGGSLRLSCAASGIIFYGYAMGWYRQAPGKERELVAGISSGGSTYYADSVKGRFTISRDNAKNTVYLQMNSLKPEDTAVYYCNADGGYSYESTDHYGYDYWGQGTQVTVSS | low polyreactivity |
| QVQLVESGGGLVQAGGSLRLSCAASGIIFYGYAMGWYRQATGKERELVAAISSGGGTNYADSVKGRFTISRDNAKNTVYLQMNSLKPEDTAVYYCAARQYRYYYWGQGTQVTVSS | high polyreactivity |
| QVQLVESGGGLVQAGGSLRLSCAASGIIFYKYAMGSYRQSPWKERELVAVISRGGGSTYYADSVKGRFTISRDNAKNTVYLQMNSLKPEDTAVYYFAADPRVTRSYTYDYWGQGTQVTVSS | high polyreactivity |
| QVQLVESGGGLVQAGGSLRLSCAASGIIFYLYAMGWYRQAPGKERELVAAISWRGGSTYYADSVKGRFTISRDNAKNTVYLQMNSLKPEDTAVYYCNKTQPIDLYGYWGQGTQVTVSS | high polyreactivity |
| QVQLVESGGGLVQAGGSLRLSCAASGIIFYLYTMGWYRQAPGKERELVAAITRGGSTYYADSVKGRFTISRDNAKNTVYLQMNSLKPEDTSVYYCAAKHGPGYRRWYDYWGQGTQVTVSS | high polyreactivity |
| QVQLVESGGGLVQAGGSLRLSCAASGIIFYPYAMGVYRKAPGKEREMVADITSGGGTNYADSVKGRFTISRDYAKNTVYLKMNSLKPEDTAVYYCAAEVRGYHWGTYYEFYYWGQGTQVTVSS | low polyreactivity |
| QVQLVESGGGLVQAGGSLRLSCAASGIIFYPYAMGWYRQAPGKERELVAAISIGGGSTYYADSVKGRFTISRDNAKNTVYLQMNSLKPEDTAVYYCAAGTPYGILGYYYWGQGTQVTVSS | low polyreactivity |
| QVQLVESGGGLVQAGGSLRLSCAASGIIFYQNTMGWYRQAPGKERELVATITKRGGSTYYADSVKGRFTISRDNAKNTVYLQMNSLKPEDTAVYYCNAAKYAASYIGYGYWGQGTQVTVSS | high polyreactivity |
| QVQLVESGGGLVQAGGSLRLSCAASGIIFYRYAMGWYRQAPGKERELVAAISGSGGRTYYADSVKGRFTISRDNAKNTVYLQMNSLKPEDTAVYYCARVYDIYHYFYAYGGDYWGQGTQVTVSS | high polyreactivity |
| QVQLVESGGGLVQAGGSLRLSCAASGIIFYRYAMGWYRQAPGKERELVAAISSSGGSTYYADSVKGRFTISRDNAKNTVYLQMNSLKPEDTAVYYCARVTTVYDGRGFVDVKRGYWGQGTQVTVSS | high polyreactivity |
| QVQLVESGGGLVQAGGSLRLSCAASGIIFYTNAMGWYRQAPGKEREFVAAINTSGGITYYADSVKGRFTISRDNAKNTVYLQMNSLKPEDTAVYYCAADQTYERHWVYYWGQGTQVTVSS | low polyreactivity |
| QVQLVESGGGLVQAGGSLRLSCAASGIIFYVYAMGWYRQAPGKERELVAAISSGGRTNYADSVKGRFTISRDNAKNTVYLQMNSLKPEDTAVYYCAAKSVRRRLGYWGQGTQVTVSS | high polyreactivity |
| QVQLVESGGGLVQAGGSLRLSCAASGIIFYVYAMGWYRQAPGKERELVAAISSTSSTYADSVKGRFTISRDNAKNTVYLQMNSLKPEDTAVFYCNTDYSDGYPAFDYWGQGTQVTVSS | low polyreactivity |
| QVQLVESGGGLVQAGGSLRLSCAASGIIFYWNAMGWYRQAPGQEREFDASISGSGGSTYADSVKGRFTISRDNAMNTVYFQMKSLKPEDTAVYYCAVLYWRPGYDYLGQGTQVTVSS | high polyreactivity |
| QVQLVESGGGLVQAGGSLRLSCAASGIIFYWYAMGWYRQAPGKERELVAAISASGASTYYADSVKGRFTISRDNAKNTVYLQMNSLKPEDTAVYYCAAEHPWSRYDYWGQGTQVTVSS | high polyreactivity |
| QVQLVESGGGLVQAGGSLRLSCAASGIIFYYAMGWYRQAPGKERELVASIRWSGDSTYYADSVKGRFTISRDNAKNTVYLQMNSLKPEDTAVYYCAAEPDSAVSYVSWRDYWGQGTQVTVSS | low polyreactivity |
| QVQLVESGGGLVQAGGSLRLSCAASGIIFYYNAMGWYRQAPGKERELVAAIDDRGDSTYYADSVKGRFTISRDNAKNTVYLEMNSLKPEDTAVYYCATDGHYLYSWYKYDYWGQGTQVTVSS | low polyreactivity |
| QVQLVESGGGLVQAGGSLRLSCAASGIIFYYNAMGWYRQAPGKERELVAAIDDRGDSTYYADSVKGRFTISRDNAKNTVYLQMNSLKPEDTAVYYCAARDRYLYFDAMDYWGQGTLVTVSS | low polyreactivity |
| QVQLVESGGGLVQAGGSLRLSCAASGIIFYYYAMGWYRQAPGKERELVAAISRSGGITYYPDSVKGRFTISRDNAKNTEYFQMNSLKAEDTAVYYGNALRLVYYHPEDDYWGQGPQVTVSS | high polyreactivity |
